Measurements reported in the Human Domainome abundance scans (Beltran et al. 2025).
± gives the uncertainty stated by the source.

B1: Protein C-ets-1, residues 55 to 135; numbered along this chain, P14921 (parent)
chain: GFTKEQQRLGIPKDPRQWTETHVRDWVMWAVNEFSLKGVDFQKFCMNGAALCALGKDCFLELAPDFVGDILWEHLEILQKE

Variants of: B1
Assay: abundance fitness (aPCA) (normalised: wild type 0, dead -1); higher = more abundant; growth selection in yeast, the domain comes from the species named
Conditions: Homo sapiens

Abundance fitness, by site and new letter:
A50: G -0.202 ± 0.029; T -0.026 ± 0.041; M -0.007 ± 0.067; I -0.236 ± 0.078; P -0.811 ± 0.072; F -0.375 ± 0.084; D 0.026 ± 0.05; C -0.116 ± 0.073; Q 0.015 ± 0.058; Y -0.351 ± 0.1; H -0.076 ± 0.079; E 0.02 ± 0.04; K 0.042 ± 0.075; W -0.548 ± 0.056; L -0.202 ± 0.034; R -0.063 ± 0.034
A53: Y -0.583 ± 0.081; P -0.943 ± 0.082; H -0.188 ± 0.075; N 0.01 ± 0.052; T -0.039 ± 0.037; W -0.583 ± 0.045; F -0.655 ± 0.066; Q -0.097 ± 0.046; R -0.046 ± 0.024; E 0.052 ± 0.044; D 0.067 ± 0.048; L -0.227 ± 0.032; I -0.452 ± 0.075; S 0.016 ± 0.031; M -0.09 ± 0.052; K -0.021 ± 0.048; G -0.028 ± 0.023
E61: V -0.52 ± 0.048; C -0.202 ± 0.083; N -0.022 ± 0.073; D -0.013 ± 0.05; R -0.033 ± 0.041; M -0.286 ± 0.079; W -0.908 ± 0.12; F -0.772 ± 0.17; S -0.011 ± 0.038; P -0.234 ± 0.036; L -0.248 ± 0.045; A -0.012 ± 0.032; Y -0.908 ± 0.26; H -0.089 ± 0.11; K 0.066 ± 0.077; I -0.685 ± 0.11
L62: P -0.954 ± 0.11; H -0.438 ± 0.11; F -0.298 ± 0.062; C -0.265 ± 0.048; Q -0.3 ± 0.053; V -0.34 ± 0.035; E -0.655 ± 0.058; D -0.968 ± 0.22; Y -0.141 ± 0.1; R -0.103 ± 0.031; K -0.195 ± 0.066; S -0.401 ± 0.048; A -0.434 ± 0.047; G -0.461 ± 0.034; N -0.419 ± 0.12; I -0.049 ± 0.094
C52: P -0.896 ± 0.073; F -0.325 ± 0.056; R -0.564 ± 0.034; Q -0.494 ± 0.062; K -0.627 ± 0.052; N -0.497 ± 0.075; G -0.562 ± 0.024; I -0.029 ± 0.052; V -0.066 ± 0.027; S -0.185 ± 0.033; M -0.079 ± 0.04; H -0.534 ± 0.079; E -0.542 ± 0.038; Y -0.472 ± 0.065; A -0.303 ± 0.029; W -0.641 ± 0.046
A63: S -0.114 ± 0.038; V 0.007 ± 0.033; Y -0.299 ± 0.11; K -0.635 ± 0.096; G -0.262 ± 0.034; D -0.873 ± 0.13; L -0.016 ± 0.032; P -1.01 ± 0.13; W -0.014 ± 0.062; M -0.115 ± 0.059; Q -0.282 ± 0.15; C 0.02 ± 0.055; N -0.399 ± 0.17; I -0.038 ± 0.12; R -0.924 ± 0.087; T -0.134 ± 0.1; H -0.096 ± 0.051
F66: E -0.002 ± 0.069; D 0.051 ± 0.058; L -0.022 ± 0.043; H 0.095 ± 0.048; C -0.031 ± 0.054; I 0.021 ± 0.063; R 0.033 ± 0.046; N 0.073 ± 0.094; S 0.036 ± 0.036; M -0.032 ± 0.048; P 0.048 ± 0.044; T 0.037 ± 0.048; K 0.053 ± 0.076; A 0.02 ± 0.045
L51: M -0.11 ± 0.05; T -0.961 ± 0.11; I -0.15 ± 0.057; C -0.803 ± 0.12; H -0.813 ± 0.14; A -0.847 ± 0.055; P -0.794 ± 0.059; F -0.894 ± 0.12; R -0.788 ± 0.051; D -0.97 ± 0.073; E -0.952 ± 0.093; Y -0.94 ± 0.21; K -1.08 ± 0.15; G -1.03 ± 0.063; N -0.718 ± 0.17; Q -0.923 ± 0.11; W -0.893 ± 0.084
C58: S 0.035 ± 0.027; E 0.05 ± 0.04; Y 0.008 ± 0.048; V 0.018 ± 0.035; A 0.049 ± 0.036; M -0.009 ± 0.042; L -0.026 ± 0.033; N 0.033 ± 0.055; D 0.056 ± 0.07; T 0.016 ± 0.042; G 0.049 ± 0.024; R 0.023 ± 0.027; H 0.039 ± 0.056; W -0.101 ± 0.036; K -0.007 ± 0.062; I -0.094 ± 0.073; Q 0.045 ± 0.044; F -0.096 ± 0.051
G55: C 0.019 ± 0.057; L -0.791 ± 0.054; V -0.448 ± 0.036; F -0.992 ± 0.15; E 0.031 ± 0.046; Q -0.08 ± 0.055; T 0.041 ± 0.04; A 0.002 ± 0.035; M -0.433 ± 0.051; K 0.029 ± 0.059; P 0.01 ± 0.037; R -0.04 ± 0.029; N 0.03 ± 0.085; H -0.055 ± 0.066; Y -0.502 ± 0.064; D 0.061 ± 0.053
G48: M -1.07 ± 0.23; L -1.05 ± 0.086; R -0.933 ± 0.085; W -0.797 ± 0.11
